Data from patent US8414660B2, “Haloferax volcanii laccase and variants and fragments thereof” (University of Florida Research Foundation, Inc., priority 2009, dated 2013).
Values joined by “and” are separate entries in the source; they are usually repeats but may differ in a detail not shown here. Equal entries are not always repeated.

Legend:
[1] = Laccase activity assay, oxidation of ABTS; type: biochemical
From the text: (§1) FIG. 6D-Thermostability of LccA.

[2] = Laccase activity assay, oxidation of DMP with copper sulfate; type: biochemical; settings: US02-purified LccA, standard conditions, CuSO4 added
Oxidation of bilirubin = type: biochemical; settings: US02-purified LccA
Oxidation of guaiacol = type: biochemical; settings: presence or absence of copper supplementation
[3] = Oxidation of ferrous ammonium sulfate; type: biochemical; settings: presence or absence of copper supplementation
[4] = Thermostability of LccA, residual SGZ oxidizing activity after pre-incubation; type: physicochemical
Description: as §1
LccA was fully active after 1 h at 55° C. and 5 h at 50° C., with a half-live of inactivation at 50° C. of 31.5 h (FIG. 6D). […] (Fernandes et al., 2007). Likewise, the recently studied recombinant RL 5 laccase from rumen metagenome has maximal activity at 60° C. and is fully stable at this temperature for 200 min (Beloqui et al., 2006). […] (Martins et al., 2002).

[5] = Salt tolerance of LccA, residual SGZ oxidizing activity after pre-incubation in NaCl; type: physicochemical; settings: 100 mM to at least 1.4 M NaCl, FIG. 6E
[6] = Effect of mixed organo-solvents on LccA stability, residual SGZ oxidizing activity; type: physicochemical; settings: 185 mM NaCl
Description: as §1
Commonly used water miscible organo-solvents (i.e., methanol, ethanol, dimethyl sulfoxide or DMSO and dimethylformamide or DMF) were examined for their compatibility with LccA stability and activity. […] LccA was relatively stable in all solvents examined, retaining nearly 75% of its activity after 24 h incubation in methanol or ethanol and over 50% of its activity after incubation in DMSO or DMF. The influence of water-miscible cosolvents on enzyme activity and stability has been examined for several fungal laccases (Rodakiewicz-Nowak et al., 1999; Robles et al., 2002; Milstein et al., 1993; Luterek et al., 1998; Cantarella et al., 2003). These prior studies coupled with the current findings reveal a wide-variety of laccases, including LccA, are stable and/or can support catalysis and conversion of phenolic substrates in water-organic mixed solvents. Since most of the substrates and mediators of laccases are insoluble or poorly soluble in water and the degree of polymerization of phenoxyl radicals is higher in aqueous media (Milstein et al., 1993), solvent stability is an important feature to consider in optimizing this group of enzymes.

[7] = Delignification of steam exploded sugarcane bagasse, total phenol by Folin-Ciocalteau
Description: Prior to enzymatic treatment, sugarcane bagasse was treated with 1% (v/v) phosphoric acid and steam exploded in a shotgun reactor at 190° C. for 10 min. The resultant bagasse was adjusted to pH 8.4 with 5M NaOH.
Stream exploded bagasse was delignified using the laccase, LccA, from H. volcanii US02. LccA was prepared for the delignification reaction by concentrating H. volcanii US02 culture supernatant 5-fold with ethanol precipitation and dialyzing the concentrate against 25 mM Tris buffer pH 8.4 supplemented with 200 mM NaCl (T buffer) with regenerated cellulose dialysis tubing (3500 Da molecular weight cut off; Thermo Scientific SnakeSkin Pleated Dialysis Tubing).
Bagasse samples were treated with LccA in a rotary shaker at 150 rpm with similar doses of heat killed LccA enzyme (HKE) as a control. Periodically clear supernatant obtained by centrifugation of small fraction of hydrolysate was used for total phenol estimation by Folin-Ciocalteau method (Singleton and Rossi, 1965). Optimal conditions were determined to be treatment with 3 Uml^1 LccA at 37° C. in T buffer at pH 8.4 for 3-6 h.

[8] = Laccase activity assay, oxidation of SGZ (syringaldazine); settings: for Km: read-out: Km, SGZ
Description: LccA (51 μg·ml^−1) activity was assayed at different temperatures (22° to 70° C.) in T buffer with 185 mM NaCl using SGZ (1 mM) as the substrate. […] LccA activity was assayed with SGZ (●) from pH 6 to 11 and with ABTS (◯) from pH 3 to 8 at 45° C. using following buffers: 100 mM sodium acetate for pH 3 to 6, 25 mM Tris-HCl for pH 7 to 10, and 25 mM glycine-NaOH for pH 11. Activity is expressed as percent relative to oxidation of ABTS at pH 6. […] Purified enzyme (50.6 μg·ml^−1) was pre-incubated in T buffer supplemented with 185 mM NaCl at temperatures from 37° to 70° C. for up to 60 h, as indicated. […] Activity is presented as percent relative to incubation on ice (37° C. (●), 45° C. (▪), 50° C. (▴), 55° C. (♦), 60° C. (◯), 65° C. (□) and 70° C. (Δ)); FIG. 6E-Salt tolerance of LccA protein. Purified enzyme (16.5 μg·ml^−1) was pre-incubated for 30 min in T buffer at pH 8.4 supplemented with different concentrations of NaCl (0 to 1.4 M) as indicated. Samples were diluted to a final concentration 4.12 μg·ml^−1 protein and 185 mM NaCl in T buffer and assayed for SGZ oxidizing activity under standard conditions. Residual activity was calculated as percent relative to incubation at 185 mM NaCl. […] Enzyme (7.5 μg·ml^−1) was incubated in T buffer with 185 mM NaCl in the presence and absence of 25% (v/v) solvent (DMSO, DMF, ethanol and methanol) at room temperature for 90 min (white bar), 3 h (grey bar) and 24 h (black bar). […] Activity is calculated as percent relative to incubation without solvent.
Enzyme activity was determined by change in absorbance, in triplicate, by UV/Visible-spectroscopy using a BioTek Synergy HT multi-detection microplate reader with a 96-well plate. Oxidation of substrate was monitored by absorbance increase (ABTS at 420 nm with ε=36,000 M^−1 cm^−1; SGZ at 526 nm with ε=65,000 M^−1 cm^−1; DMP at 468 nm with ε=49,000 M^−1 cm^−1; guaiacol at 436 nm with ε=26,600 M^−1 cm^−1; ferrous ammonium sulfate at 315 nm with ε=2,200 M^−1 cm^−1) or decrease (bilirubin at 440 nm with ε=56,300 M^−1 cm^−1). Standard assay conditions were 185 mM NaCl at 45° C. with the following buffers and substrate concentrations: 100 mM sodium acetate buffer at pH 6.0 for ABTS (at 5 mM), DMP (at 2 mM) and guaiacol (at 5 mM); 25 mM Tris-HCl buffer at pH 8.4 for SGZ (at 1 mM); and 200 mM Tris-HCl buffer at pH 8.4 for bilirubin (0.45 mM). Copper sulfate (1 mM) was included for assay of DMP oxidation. Oxidation of ferrous ammonium sulphate (1 mM) was monitored at 315 nm (ε=2,200 M^−1 cm^−1) with and without salt (185 mM NaCl) in 100 mM MES (morpholineethanesulfonic acid) buffer at pH 5 as well as 25 mM Tris-HCl buffer at pH 7.0 and 8.4. One unit of enzyme activity is defined as the amount of enzyme that oxidizes 1 μmol of substrate per min at standard conditions. […] Kinetic parameters (Km, Vmax, and kcat) were determined using the Michaelis-Menten equation. […] All assays and protein purifications were performed at least in triplicate.
To further evaluate the catalytic properties of LccA, the temperature, pH and salt optima of the purified enzyme were determined using SGZ and/or ABTS as substrates.

[9] = LccA from culture broth of Hfx. volcanii BS01
[10] = LccA from culture broth of Hfx. volcanii US02

pH optimum, SGZ oxidization ([8]; 45° C., FIG. 6C): 8.4
Activity relative to temperature optimum ([8]; 55° C.): 67%
Activity relative to temperature optimum ([8]; 60° C.): 48%
Activity relative to temperature optimum ([8]; 65° C.): 35%
Activity relative to temperature optimum ([8]; 70° C.): 15%
Salt concentration for optimal activity ([8]; NaCl or KCl in T buffer at 45° C., FIG. 6B): ~200 mM
Activity in KCl higher than in NaCl ([8]; at ~200 mM salt): 1.5 fold
Activity relative to temperature optimum ([8]; room temperature (25° C.)): ~75%
B1: LccA: Haloferax volcanii laccase of the multicopper oxidase family, SEQ ID NO: 2, secreted glycoprotein purified from culture broth of strain US02 (protein, listed as Haloferax volcanii)
chain: MTDWSRRRFLQTGAALGIAGTLPQTTTEVSAASPTLEKFVQPLPIPSVREPDGQRDGADAYEIAVTEFTQQLHPDLPETTVWGFDGSYPGPTIEADAGSPVHVRFDNSGLPSEHLFPVDDRLGGTTAENHPGYDGPVPEVRTVTHFHGLELDPANDGQSDMWTSPGGVEGPRFDSAWQELPMEQGRTTSTYHDHTLGITRLNAYAGLLGLYSITTDAERELGLPSGDYDIPLLLQDKEFNDDGSLHYPEEFVSAFLGDTAVVNGAVWPYVEVEPRRYRFRILNGANHRSFDLQLESESGSGVPTMYQFAPGHGFLESVVPIGPNGDLDSLLLTPFERGELVVDFSDHAGETLTLANGADMGPELTDLVEFRVSDPSTPPEDASADPTSLSLPTPASYDESDARVTREMTLGTEVRNGLITHTLNGHVFGDEDAPVYPQLGATEIWELQNESGGRHPIHLHLVTFRVIGRGPDGTQPPDPNELGPKDTVRVDPGERVRILVTFEGYTGQFPWHCHMLEHEDNKMMIPFVVENPVADYANEENVVDATGLTDAVGDWRNETLETEVLLEVIDQWRSGDEVA
modifications: glycosylated
pH optimum, ABTS oxidation ([1]; 45° C., FIG. 6C): 6.0
Km [1, 9]: 700 µM
kcat, ABTS [1, 9]: 10.0 s⁻¹
Km [1, 10]: 671 µM
kcat, ABTS [1, 10]: 9.9 s⁻¹
Specific activity, ABTS oxidation ([1]; US02-purified LccA, standard conditions): 6.1±0.39 U·mg^−1
Specific activity, DMP oxidation [2]: 12.6±1.1 U·mg^−1
Km (Oxidation of bilirubin): 236 µM
kcat, bilirubin (Oxidation of bilirubin): 29 s⁻¹
Specific activity, bilirubin oxidation (Oxidation of bilirubin; standard conditions): 25.5±1 U·mg^−1
Oxidation of guaiacol (Oxidation of guaiacol): did not oxidize
Oxidation of Fe^2+ (ferrous ammonium sulphate) [3]: did not oxidize
Activity retained after incubation ([4]; 37° C., 2½ days): nearly all of its original activity
Activity after pre-incubation ([4]; 1 h at 55° C.): fully active
Activity after pre-incubation ([4]; 5 h at 50° C.): fully active
Activity retained after incubation in NaCl [5]: nearly all of its original activity
Activity retained after incubation in solvent ([6]; 25% (v/v) DMSO or DMF): over 50%
Activity retained after incubation in solvent ([6]; 24 h, 25% (v/v) methanol or ethanol): ~75%
Phenol content after treatment ([7]; 3 h of treatment, from 1473±10 before): 1160±26 mg phenol per liter
Reduction in the phenol content ([7]; 3 h of treatment, ~1 g dry weight bagasse in 15 ml T buffer): 21%
Reduction in the phenol content ([7]; bagasse (~1 g dry weight equivalents) in 50 ml of T buffer): 38-43%
kcat, SGZ [8, 9]: 19.4 s⁻¹
kcat, SGZ [8, 10]: 21.7 s⁻¹
Specific activity, SGZ oxidation ([8]; LccA purified from H. volcanii US02, fraction F2 (upper fraction), MonoQ 10/10): F2, 6.7 U · mg^−1
Specific activity, SGZ oxidation ([8]; improved purification protocol from H. volcanii US02, MonoQ 10/10 pH 8.4): 51.5 U·mg^−1
Specific activity, SGZ oxidation ([8]; purified from culture broth of Hfx. volcanii SB01 (C-terminal StrepII tag), final MonoQ 10/10 pH 8.4): 1.3 U·mg^−1 and 1.34 U·mg^−1
Km [8, 9]: 67 µM
Km [8, 10]: 35 µM
